Experimental data from publication PMC8854993, “Acetylation at Lysine 86 of Escherichia coli HUβ Modulates the DNA-Binding Capability of the Protein” (Frontiers in Microbiology, 2021).

B1: 30-bp duplex with 2-nt gap (dsDNA)
DNA 1: CCAACTTCCCTAACCCAGCTGCGATCCGTA
DNA 2: TACGGATCGCAGC
DNA 3: GGTTAGGGAAGTTGG
modifications: 2-nt gap in bottom strand

Key:
[1] = molecular target: HUβ(K86ac) K86ac (Escherichia coli BL21(DE3)) (UniProt P0ACF4); assay: EMSA; details: 4 µM HU dimer, 1 µM DNA; versus HUβ2; p < 0.05; 2-nt gap in bottom strand; 30 mM Tris pH 7.5, 100 mM NaCl, 0.02% Tween20, 0.5 mg/ml BSA; 30-bp DNA 1 µM, 18°C 10 min, 10% PAGE in TBE; long DNA 250 ng in 15 µL, 37°C 1 h, 0.5% agarose in …
HUα;HUβ = HUα;HUβ (Escherichia coli BL21(DE3);Escherichia …, UniProt P0ACF0;P0ACF4 1-90;1-90, |); assay: EMSA; heterodimer; higher affinity than homodimer; 30 mM Tris pH 7.5, 100 mM NaCl, 0.02% Tween20, 0.5 mg/ml BSA; 30-bp DNA 1 µM, 18°C 10 min, 10% PAGE in TBE; long DNA 250 ng in 15 µL, 37°C 1 h, 0.5% agarose in; details: protein: recombinant;recombinant; tags: C-terminal 6xHis;C-terminal 6xHis; copies: 1;1; three strands; 2-nt gap in bottom strand between S16 and S17; blunt outer ends
HUα;HUβ, sequence (P0ACF0 whole entry, chain 1 of 2): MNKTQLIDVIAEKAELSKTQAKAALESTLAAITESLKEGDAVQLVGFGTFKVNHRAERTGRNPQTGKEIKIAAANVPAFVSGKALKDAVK
HUα;HUβ, sequence (P0ACF4 whole entry, chain 2 of 2): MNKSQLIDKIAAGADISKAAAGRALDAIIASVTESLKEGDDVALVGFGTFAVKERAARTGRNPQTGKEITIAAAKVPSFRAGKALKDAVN

HUβ(K86ac) K86ac (Escherichia coli BL21(DE3)), sequence (P0ACF4 whole entry): as the sequence (P0ACF4 whole entry, chain 2 of 2) above

Molecule | binding signal (fold free DNA) [1] | binding result (HUα;HUβ)
CCAACTTCCCTAACCCAGCTGCGATCCGTA / TACGGATCGCAGC / GGTTAGGGAAGTTGG [30-bp duplex with 2-nt gap] | > 4 | –
B1 | – | binds
